Patent publication EP4763867A1 (Shanghai Mabgen Biotech Ltd., dated 2026)
Read-outs that look alike come from different tables or passages of the source. Blank lines part the entries; values can stand above or below the binder they belong to.

How the values were obtained:
[1] = biological target: T1, IL-2Rβ and IL-2Rγ on M07e cells (moderate-avidity IL-2 receptor IL-2Rβγ) (human, UniProt P14784 27-551; P31785 23-369); test: cell-based or functional assay
T1 sequence (looked up) 1: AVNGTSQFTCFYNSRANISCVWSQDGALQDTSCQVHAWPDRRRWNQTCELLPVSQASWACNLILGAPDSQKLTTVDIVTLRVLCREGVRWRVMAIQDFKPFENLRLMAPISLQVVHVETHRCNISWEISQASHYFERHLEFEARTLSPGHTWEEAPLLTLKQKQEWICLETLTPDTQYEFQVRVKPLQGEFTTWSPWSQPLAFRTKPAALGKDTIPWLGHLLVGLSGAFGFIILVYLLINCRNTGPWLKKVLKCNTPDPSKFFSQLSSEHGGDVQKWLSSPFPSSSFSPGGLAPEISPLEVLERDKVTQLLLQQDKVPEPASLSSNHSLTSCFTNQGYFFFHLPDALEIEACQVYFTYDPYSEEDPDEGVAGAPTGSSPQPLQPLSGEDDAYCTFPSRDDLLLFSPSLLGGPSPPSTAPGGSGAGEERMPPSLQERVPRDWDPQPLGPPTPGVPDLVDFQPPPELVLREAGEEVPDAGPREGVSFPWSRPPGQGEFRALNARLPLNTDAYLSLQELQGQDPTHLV
T1 sequence (looked up) 2: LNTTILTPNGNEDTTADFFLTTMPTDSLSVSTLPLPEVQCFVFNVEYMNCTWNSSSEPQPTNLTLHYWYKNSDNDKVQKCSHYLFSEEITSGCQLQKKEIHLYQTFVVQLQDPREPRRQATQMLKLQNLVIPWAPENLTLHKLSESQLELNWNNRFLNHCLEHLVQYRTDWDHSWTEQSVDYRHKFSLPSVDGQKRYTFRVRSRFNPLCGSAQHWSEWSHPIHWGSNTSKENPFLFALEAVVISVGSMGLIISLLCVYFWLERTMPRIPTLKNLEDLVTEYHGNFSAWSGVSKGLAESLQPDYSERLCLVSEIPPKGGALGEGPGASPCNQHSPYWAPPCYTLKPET

[2] = biological target: T2, human PD-1 (SEQ ID NO: 1) expressed on cells (human, UniProt Q15116 25-288); test: cell-based or functional assay
[3] = biological target: T3, Biotinylated human PD-1 (AcroBiosystems, PD1-H82E4) (human, UniProt Q15116 25-167, biotinylated (site not stated)); test: screening of a VHH yeast display library with biotinylated antigens
T3 construct: Screening antigen of the yeast display library; also called human PD-1 antigen (screening antigen)

[4] = biological target: T2, human PD-1 (SEQ ID NO: 1) expressed on …; test: cell-based or functional assay; remark: listed apart in the source

T2 sequence (Q15116 25-288 limits assumed): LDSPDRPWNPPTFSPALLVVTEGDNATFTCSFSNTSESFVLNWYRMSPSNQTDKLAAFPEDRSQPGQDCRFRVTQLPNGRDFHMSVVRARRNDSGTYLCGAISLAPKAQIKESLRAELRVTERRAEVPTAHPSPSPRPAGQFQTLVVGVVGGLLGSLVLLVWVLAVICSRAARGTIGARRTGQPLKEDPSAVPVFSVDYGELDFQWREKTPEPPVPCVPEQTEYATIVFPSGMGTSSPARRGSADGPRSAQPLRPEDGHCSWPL
T3 sequence (Q15116 25-167 limits assumed): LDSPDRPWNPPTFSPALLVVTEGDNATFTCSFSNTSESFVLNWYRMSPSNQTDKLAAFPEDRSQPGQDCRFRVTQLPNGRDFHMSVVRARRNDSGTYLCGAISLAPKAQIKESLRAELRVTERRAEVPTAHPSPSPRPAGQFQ

B1: PEGylated IL-2 mutant (PEG-IL-2v) (ligand)
chain: APASSSTKKTQLQLEHLLLDLQMILQGISNYKNPKLTRMLTAKFYMPKKATELKHLQCLEEELKPLEEVLQGAQSKNFHLRPRDLISNINVIVLELKGSETTFMCEYADETATIVEFLNRWITFAQSIISTLT
modifications: PEGylated (site and PEG not stated)
M07e proliferation, EC50 [1]: 20.9 nM
M07e-hPD1 proliferation, EC50 [1]: 13.3 nM

B4: A17m0902_hIgG4 (antibody, V domains shown)
VH: EVQLVESGGGLVQPGGSLRLSCAASGLTFSDYSMSWYRQAPGKGRELVAIISGSGVITHYVDSVKGRFTISRDNAKNTLYLQMRSLRAEDTAVYYCRAVSDWEDYWGQGTQVTVSS
activity IC50, PD-1/PD-L1 NFAT reporter gene system [4]: 0.435 nM

Now from value to binder:

activity IC50, PD-1/PD-L1 NFAT reporter gene system [2]: 1.2 nM
B2: A17_hIgG4 (antibody, V domains shown)
VH: EVQVVESGGGLVQPGGSLRLSCVASGLTFSDYSMSWYRQAPGKERELVAIISGSGVIAHYVDSVKGRFTISRDNAKSTVYLQMVSLKPEDRGVYYCRAVSDWDDYWGQGTQVTVSS

binding result [3]: binds
B3: A17 (VHH)
VHH: B2 VH
notes: also called Variable region of A17
